Assay [1] concerns the target T1, Full length human CD40 (huCD40) on cells (human, UniProt P25942 21-277). Nature of the assay: cell-based or functional assay.
Target sequence in this assay (P25942 21-277): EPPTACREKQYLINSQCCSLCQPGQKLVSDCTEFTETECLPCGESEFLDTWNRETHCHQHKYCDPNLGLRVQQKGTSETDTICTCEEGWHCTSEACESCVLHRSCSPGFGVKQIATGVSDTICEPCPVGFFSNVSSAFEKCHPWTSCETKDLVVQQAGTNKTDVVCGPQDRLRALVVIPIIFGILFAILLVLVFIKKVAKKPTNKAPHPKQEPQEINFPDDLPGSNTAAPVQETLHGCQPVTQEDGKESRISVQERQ
Assay [2] addresses T1, Full length human CD40 (huCD40) on cells. Nature of the assay: flow cytometry, human DCs.
Target sequence in this assay (P25942 21-277): as above
Assay [3] shares this target. Nature of the assay: flow cytometry, human B cells.
Target sequence in this assay (P25942 21-277): as above
For assay [4] the target is unchanged. Nature of the assay: flow cytometry, HEK-Blue CD40L cells.
Target sequence in this assay (P25942 21-277): as above
Assay [5] shares this target. Briefly: cell-based or functional assay. This is another data set of the same source.
The target is the same in assay [6]. Briefly: cell-based or functional assay. The source holds these as a separate data set.
Assay [7] shares this target. Briefly: flow cytometry, Raji cells.
Assay [8] deals with T2, Macaca fascicularis (cyno) CD40 (cCD40) on cells (Macaca fascicularis (cynomolgus), UniProt P25942 21-277 (human entry)).
T2 construct: CD40 on cyno mature DCs
T2 chain: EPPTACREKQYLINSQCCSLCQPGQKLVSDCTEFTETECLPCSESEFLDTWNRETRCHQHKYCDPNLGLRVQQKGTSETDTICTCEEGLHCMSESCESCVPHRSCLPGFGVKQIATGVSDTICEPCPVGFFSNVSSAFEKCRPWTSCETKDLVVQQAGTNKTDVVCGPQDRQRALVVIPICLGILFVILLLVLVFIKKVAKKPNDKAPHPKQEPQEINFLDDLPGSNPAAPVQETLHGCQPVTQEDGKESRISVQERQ
Nature of the assay: flow cytometry, cyno mature DCs. On the procedure: (§1) Human monocytes were isolated from either frozen/fresh PBMC using CD14 negative isolation kit per manufacturer's protocol (MACS Miltenyi). Cyno monocytes were isolated from fresh PBMC using CD14 positive isolation kit per manufacturer's protocol (MACS Miltenyi). To generate DCs, monocytes were cultured for 5 days in complete media RPMI (Invitrogen) in the presence of 100 ng/ml human GM-CSF and human IL-4 (Peprotech) and media was replenished every 2 days. On day 5, DCs were stimulated with 100 ng/ml LPS (Sigma) for 24 hours. Cells were then stained with each of the tested CD40 antibody at different concentration in flow cytometry buffer (PBS+1% FBS; BD Bioscience) in 100 μl volume for 30 minutes on ice followed with two washes with flow buffer. Cells were then stained for additional 30 minutes on ice with APC-conjugated anti human IgG (Jackson ImmunoResearch) at the recommended dilution 1:100 and washed twice with flow buffer. Cells were analyzed for percent positive and Mean Fluorescence Intensity (MFI) to determine the antibody binding using Fortessa (BD Bioscience).
(§2) The experiments were conducted using assays described above. 20 antibodies were characterized further based on their binding to human DCs, cyno DCs, Raji cells and HEK-Blue™ CD40L cells.

Assay [9] concerns the target T1, Full length human CD40 (huCD40) on cells. Briefly: flow cytometry, human mature DCs. The protocol: as §1, §2
Assay [10] has the same target. Nature of the assay: flow cytometry, HEK-Blue CD40L cells. The source holds these as a separate data set.
For the next assay, the target named is T3, human CD40 (SPR analyte) (human, UniProt P25942 21-193).
T3 construct: also called huCD40-ECD
Briefly: SPR ProteOn XPR36, mAb captured by anti-human IgG Fc, CD40 as analyte, 25 C. On the procedure: (§3) Affinity measurements were performed using Surface Plasmon Resonance (SPR) using a ProteOn XPR36 system (BioRad). […] Approximately 5000 RU (response units) of mAbs were immobilized. The kinetic experiments were performed at 25° C. in running buffer (DPBS+0.01% P20+100 μg/ml BSA). To perform kinetic experiments, 200 RU of mAbs were captured followed by injections of analytes (human or cyno CD40) at 5 concentrations (in a 4-fold serial dilution). The association phase was monitored for 3 minutes at 50 μL/min, then followed by 15 minutes of buffer flow (dissociation phase). The chip surface was regenerated with two 18 second pulses of 100 mM H₃PO₄ (Sigma, Cat#7961) at 100 μL/min.
(§4) The collected data were processed using ProteOn Manager software. First, the data was corrected for background using inter-spots. Then, double reference subtraction of the data was performed by using the buffer injection for analyte injections. The kinetic analysis of the data was performed using a Langmuir 1:1 binding model. The result for each mAb was reported in the format of Ka (On-rate), Kd (Off-rate) and KD (equilibrium dissociation constant).
(§5) The parameters reported in this table were obtained from a 1:1 Langmuir binding model for all samples. Affinity, KD=kd/ka.

Another assay deals with T4, cyno CD40 (SPR analyte) (Macaca fascicularis (cynomolgus), UniProt P25942 21-193 (human entry), limits assumed).
T4 construct: also called cCD40-ECD
T4 chain: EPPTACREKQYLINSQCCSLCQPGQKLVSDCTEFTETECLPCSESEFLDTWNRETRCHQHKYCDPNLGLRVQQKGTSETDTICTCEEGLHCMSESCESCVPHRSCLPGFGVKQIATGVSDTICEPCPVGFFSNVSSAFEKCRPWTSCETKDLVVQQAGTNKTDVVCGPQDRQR
Nature of the assay: SPR ProteOn XPR36, mAb captured, cyno CD40 as analyte, 25 C; did not fit well to 1:1 model. On the procedure:
as §3, §4, §5

B1: C40M102 (antibody, human IgG1, lambda, V domains shown)
VH: EVQLVESGGGLVQPGGSLRLSCAASGFTFSSYAMSWVRQAPGKGLEWVSIINNNVGRTYYADSVKGRFTISRDNSKNTLYLQMNSLRAEDTAVYYCAKEGGDYYYYGMDVWGQGTTVTVSS
VL: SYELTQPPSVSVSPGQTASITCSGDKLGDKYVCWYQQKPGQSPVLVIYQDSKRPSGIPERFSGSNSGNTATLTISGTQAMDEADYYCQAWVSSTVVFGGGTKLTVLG
notes: Variant of C40M18 (VH C40H48, VL C40L70); cloned as IgG1
For B1, in [1], the “EC50, Human B cells (CD83)” value was 23.9 ng/mL; the “EC50, Human DC (HLA-DR)” value turned out to be 367 ng/mL; the “EC50, agonistic activity on HEK-Blue™ CD40L cells (NF-κB/SEAP)” value (from here on “EC50, agonistic activity”) stood at 75.1 ng/mL. This molecule had an EC50 in [2] of 438 ng/mL. In assay [3], the response was half-maximal at 159 ng/mL (EC50). This molecule also had an EC50 in [4] of 162 ng/mL.

B2: C40M103 (antibody, human IgG1, lambda, V domains shown)
VH: EVQLVESGGGLVQPGGSLRLSCAASGFTFSSYAMSWVRQAPGKGLEWVSIINNNVGRTYYADSVKGRFTISRDNSKNTLYLQMNSLRAEDTAVYYCAKEGGDYYYYGMDVWGQGTTVTVSS
VL: SYELTQPPSVSVSPGQTASITCSGDKLGDKYVSWYQQKPGQSPVLVIYQDSKRPSGIPERFSGSNSGNTATLTISGTQAMDEADYYCQAWVSSTVVFGGGTKLTVLG
notes: Variant of C40M18 (VH C40H48, VL C40L69; LCDR1 cysteine mutated); cloned as IgG1
Turning to B2, in assay [1], the “EC50, Human B cells (CD83)” value was 4.79 ng/mL; the “EC50, Human DC (HLA-DR)” value was found to be 388 ng/mL; the “EC50, agonistic activity” value is 2.74 ng/mL. Also, in assay [2], the midpoint of the response, the EC50, lay at 143 ng/mL. For the same molecule, a half-maximal response in assay [3] (EC50) required 75 ng/mL. For the same molecule, the concentration for a half-maximal effect (EC50) in [4] turned out to be 112 ng/mL.

B3: C40M104 (antibody, human IgG1, lambda, V domains shown)
VH: EVQLVESGGGLVQPGGSLRLSCAASGFTFSSYAMSWVRQAPGKGLEWVSIINNNVGRTYYADSVKGRFTISRDNSKNTLYLQMNSLRAEDTAVYYCAKEGGDYYYYGMDVWGQGTTVTVSS
VL: SYELTQPPSVSVSPGQTASITCSGDKLGDKYVSWYQQKPGQSPVVVIYQDSKRPSGIPERFSGSNSGNTATLTISGTQAMDEAYYYCQAWVSSTVVFGGGTKLTVLG
notes: Variant of C40M18 (VH C40H48, VL C40L68; LCDR1 cysteine mutated); cloned as IgG1
For B3, the “EC50, Human B cells (CD83)” value in assay [1] was found to be 16.7 ng/mL. Besides, the “EC50, Human DC (HLA-DR)” value in assay [1] stood at 166 ng/mL. Also, in assay [1], the “EC50, agonistic activity” value is 30.8 ng/mL. Besides, the EC50 in assay [2] turned out to be 253 ng/mL; in [3], 110 ng/mL; in assay [4], 178 ng/mL.

B4: C40M105 (antibody, human IgG1, lambda, V domains shown)
VH: QLQLQESGPGLVKPSETLSLTCTVSGGSISSSSYYWGWIRQPPGKGLEWIGNIYYRGDTYYSPSLKSRVTISVDTSKNQFSLKLSSVTAADTAVYYCARGFRFDYWGQGTLVTVSS
VL: QSALTQPPSASGSPGQSVTISCTGTSSDVGGYNYVSWYQQHPGKAPKLMIYEVSKRPSGVPDRFSGSKSGNTASLTVSGLQAEDEADYYCSSYAGSNNLVFGGGTKLTVLG
Consider B4, for which, in [1], the “EC50, Human B cells (CD83)” value was 2.82 ng/mL; the “EC50, Human DC (HLA-DR)” value stood at 2970 ng/mL; the “EC50, agonistic activity” value was 17.3 ng/mL. In [2], a half-maximal effect (EC50) was put at 5760 ng/mL. The molecule further registered an EC50 in assay [3] of 6650 ng/mL. The concentration for a half-maximal effect (EC50) in assay [4] is 2160 ng/mL.

B5: C40M63 (antibody, human IgG1, kappa, V domains shown)
VH: QVQLVQSGAEVKKPGSSVKVSCKASGGTFSSYAISWVRQAPGQGLEWMGGIIPIFGTANYAQKFQGRVTITADESTSTAYMELSSLRSEDTAVYYCARVGHPAWWRDSLDYWGQGTLVTVSS
VL: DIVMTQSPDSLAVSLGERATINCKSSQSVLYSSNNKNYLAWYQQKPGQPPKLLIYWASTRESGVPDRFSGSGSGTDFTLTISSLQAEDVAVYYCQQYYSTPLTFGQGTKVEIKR
notes: Full-length IgG1/kappa; from phage display
On to B5, for which, in assay [5], the “B cells EC50, CD23 surface expression, with cross-linker” value was determined as 6.94 ng/mL; the “B cells EC50, CD80 surface expression, with cross-linker” value was found to be 0.0167 ng/mL; the “B cells EC50, CD83 surface expression, with cross-linker” value was 0.581 ng/mL; the “B cells EC50, CD86 surface expression, with cross-linker” value came to 1.26 ng/mL. Besides, the “B cells EC50, HLA-DR surface expression, with cross-linker” value in assay [5] turned out to be 0.00966 ng/mL. Moreover, in [6], the “DC EC50, CD80 surface expression, with cross-linker” value worked out at 70.5 ng/mL; the “DC EC50, CD83 surface expression, with cross-linker” value worked out at 0.962 ng/mL; the “DC EC50, CD86 surface expression, with cross-linker” value was 258 ng/mL; the “DC EC50, HLA-DR surface expression, with cross-linker” value is 154 ng/mL. In assay [7], this molecule registered an EC50 of 39.6 ng/mL. In assay [8], a half-maximal response (EC50) required 30.9 ng/mL. The molecule also showed a concentration giving a half-maximal response (EC50) in assay [9] of 99.6 ng/mL. The molecule further gave an EC50 in assay [10] of 84.9 ng/mL. For the same molecule, in the assay with human CD40 (SPR analyte), the dissociation constant Kd was 1.21 nM, the koff amounted to 0.000641 s⁻¹ and the association rate constant (kon) is 528000 M⁻¹ s⁻¹. For the same molecule, in the assay with cyno CD40 (SPR analyte), binding was characterised by a dissociation constant (Kd) of 0.412 nM, the dissociation rate constant (koff) was found to be 0.000307 s⁻¹ and the association rate constant (kon) amounted to 746000 M⁻¹ s⁻¹.

B6: C40M62 (antibody, human IgG1, kappa, V domains shown)
VH: QVQLVQSGAEVKKPGSSVKVSCKASGGTFSSYAISWVRQAPGQGLEWMGGIIPIFGTANYAQKFQGRVTITADESTSTAYMELSSLRSEDTAVYYCARVANAAYFRSGLDYWGQGTLVTVSS
VL: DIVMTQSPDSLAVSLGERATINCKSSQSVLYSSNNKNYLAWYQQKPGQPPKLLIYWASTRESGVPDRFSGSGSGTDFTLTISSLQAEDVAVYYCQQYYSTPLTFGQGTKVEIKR
notes: as for B5
Regarding B6, in [5], the “B cells EC50, CD23 surface expression, with cross-linker” value worked out at 12.5 ng/mL; the “B cells EC50, CD80 surface expression, with cross-linker” value turned out to be 1.54 ng/mL; the “B cells EC50, CD83 surface expression, with cross-linker” value was found to be 1.26 ng/mL; the “B cells EC50, CD86 surface expression, with cross-linker” value was determined as 1.14 ng/mL. For the same molecule, in assay [5], the “B cells EC50, HLA-DR surface expression, with cross-linker” value worked out at 0.356 ng/mL. In addition, in assay [6], the “DC EC50, CD80 surface expression, with cross-linker” value was 602 ng/mL; the “DC EC50, CD83 surface expression, with cross-linker” value was found to be 218 ng/mL; the “DC EC50, CD86 surface expression, with cross-linker” value stood at 381 ng/mL; the “DC EC50, HLA-DR surface expression, with cross-linker” value stood at 60.4 ng/mL. The same molecule gave an EC50 in [7] of 99.4 ng/mL. This molecule displayed an EC50 in assay [8] of 71.6 ng/mL. In addition, the EC50 in assay [9] was determined as 329 ng/mL. This molecule gave an EC50 in assay [10] of 228 ng/mL. Further, in the assay with human CD40 (SPR analyte), the affinity, expressed as Kd, was 13.1 nM; the koff came to 0.00247 s⁻¹; the kon was 189000 M⁻¹ s⁻¹. In the assay with cyno CD40 (SPR analyte), this molecule returned a dissociation constant (Kd) of 2.64 nM, a koff of 0.000908 s⁻¹ and a kon of 343000 M⁻¹ s⁻¹.
